# Molecular target: T1, Glypican-3 (UniProt P51654 25-559, limits assumed)
# T1 construct: also called GPC3
# Test: Biacore (SPR)
Kd [nM],koff [s⁻¹],kon [M⁻¹ s⁻¹],Binder
0.9,0.0016,1.7e+06,"Antibody C (antibody, human IgG1, kappa, V domains shown, Variable-region variant of GPC3.1, IgG1/kappa; also called variant antibody C) VH: EVQLVQSGAEVKKPGESLKISCKGSGYSFTRYWIAWVRQMPGKGLEWMGIIFPGDSHTGYSPSFQGQVTISADRSISTAYLQWSSLKASDTAMYYCARTREGYFDYWGQGTLVTVSS VL: not shown"
2.2,0.0036,1.7e+06,"Antibody B (antibody, human IgG1, kappa, V domains shown, Variable-region variant of GPC3.1, IgG1/kappa; also called variant antibody B) VH: EVQLVQSGAEVKKPGESLKISCKGSGYSFTRYWIAWVRQMPGKGLEWMGIIFPGDSHTGYSPSFRGQVTISADKSISTAYLQWSSLKASDTAMYYCARTREGYFDYWGQGTLVTVSS VL: not shown"
2.7,0.0029,1.1e+06,"Antibody A (antibody, human IgG1, kappa, V domains shown, Variable-region variant of GPC3.1, IgG1/kappa; also called variant antibody A) VH: EVQLVQSGAEVKKPGESLKISCKGSGYSFTSYWIAWVRQMPGKGLEWMGIIFPGDSHTGYSPSFQGQVTISADRSIRTAYLQWSSLKASDTAMYYCARTRQGYFDYWGQGTLVTVSS VL: not shown"
